Data on three molecules can be found in PMC6807164, “The lipid transfer protein Saposin B does not directly bind CD1d for lipid antigen loading” (Wellcome Open Research, 2019).

Test [1] deals with Apolipoprotein B (Homo sapiens) (UniProt P04114). Conditions: cited from earlier work.
For a further test, the target named is CD14 (Homo sapiens) (UniProt P08571). Conditions: cited from earlier work.
The target of test [2] is T1, CD1d-β2m complex (glycosylated CD1d-H6 with untagged β2m) (human, UniProt P15813 20-301; P61769 21-119, glycosylated (N-linked glycans from expression in HEK293F)).
T1 construct: CD1d, human, extracellular domain, residues 20-301 of UniProt P15813; expressed behind the vector's N-terminal secretion signal; β-2-microglobulin, human, residues 21-119 of UniProt P61769; untagged; Carries endogenous human lipids as purified; The results call β2m full-length, the methods give residues 21-119; also called CD1d-H 6-β 2m; gCD1d; not shown: His6, C-terminal, kept
Put plainly: equilibrium binding assay (depletion of prey from the supernatant, no wash steps); CD1d-β2m on Ni-NTA agarose beads at 0-40 μM, SapB at 680 nM; 50 mM HEPES pH 7.0, 150 mM NaCl, 0.05% digitonin, 2.5 mM CaCl2, 2.5 mM MgCl2; 1 hour at room temperature; unbound SapB detected by SYPRO Ruby; both proteins with the endogenous lipids they co-purify with. Conditions: both partners purified.

CD14 (Homo sapiens), sequence (P08571 20-345): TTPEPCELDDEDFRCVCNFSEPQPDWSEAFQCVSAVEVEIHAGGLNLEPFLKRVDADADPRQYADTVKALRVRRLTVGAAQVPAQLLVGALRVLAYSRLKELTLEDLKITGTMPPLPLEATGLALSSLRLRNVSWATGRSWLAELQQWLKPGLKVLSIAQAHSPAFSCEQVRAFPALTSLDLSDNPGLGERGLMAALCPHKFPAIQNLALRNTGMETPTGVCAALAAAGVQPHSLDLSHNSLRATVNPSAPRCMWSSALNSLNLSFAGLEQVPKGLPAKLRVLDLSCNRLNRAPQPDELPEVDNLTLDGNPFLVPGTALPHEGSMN
Apolipoprotein B (Homo sapiens), sequence (P04114 28-2179): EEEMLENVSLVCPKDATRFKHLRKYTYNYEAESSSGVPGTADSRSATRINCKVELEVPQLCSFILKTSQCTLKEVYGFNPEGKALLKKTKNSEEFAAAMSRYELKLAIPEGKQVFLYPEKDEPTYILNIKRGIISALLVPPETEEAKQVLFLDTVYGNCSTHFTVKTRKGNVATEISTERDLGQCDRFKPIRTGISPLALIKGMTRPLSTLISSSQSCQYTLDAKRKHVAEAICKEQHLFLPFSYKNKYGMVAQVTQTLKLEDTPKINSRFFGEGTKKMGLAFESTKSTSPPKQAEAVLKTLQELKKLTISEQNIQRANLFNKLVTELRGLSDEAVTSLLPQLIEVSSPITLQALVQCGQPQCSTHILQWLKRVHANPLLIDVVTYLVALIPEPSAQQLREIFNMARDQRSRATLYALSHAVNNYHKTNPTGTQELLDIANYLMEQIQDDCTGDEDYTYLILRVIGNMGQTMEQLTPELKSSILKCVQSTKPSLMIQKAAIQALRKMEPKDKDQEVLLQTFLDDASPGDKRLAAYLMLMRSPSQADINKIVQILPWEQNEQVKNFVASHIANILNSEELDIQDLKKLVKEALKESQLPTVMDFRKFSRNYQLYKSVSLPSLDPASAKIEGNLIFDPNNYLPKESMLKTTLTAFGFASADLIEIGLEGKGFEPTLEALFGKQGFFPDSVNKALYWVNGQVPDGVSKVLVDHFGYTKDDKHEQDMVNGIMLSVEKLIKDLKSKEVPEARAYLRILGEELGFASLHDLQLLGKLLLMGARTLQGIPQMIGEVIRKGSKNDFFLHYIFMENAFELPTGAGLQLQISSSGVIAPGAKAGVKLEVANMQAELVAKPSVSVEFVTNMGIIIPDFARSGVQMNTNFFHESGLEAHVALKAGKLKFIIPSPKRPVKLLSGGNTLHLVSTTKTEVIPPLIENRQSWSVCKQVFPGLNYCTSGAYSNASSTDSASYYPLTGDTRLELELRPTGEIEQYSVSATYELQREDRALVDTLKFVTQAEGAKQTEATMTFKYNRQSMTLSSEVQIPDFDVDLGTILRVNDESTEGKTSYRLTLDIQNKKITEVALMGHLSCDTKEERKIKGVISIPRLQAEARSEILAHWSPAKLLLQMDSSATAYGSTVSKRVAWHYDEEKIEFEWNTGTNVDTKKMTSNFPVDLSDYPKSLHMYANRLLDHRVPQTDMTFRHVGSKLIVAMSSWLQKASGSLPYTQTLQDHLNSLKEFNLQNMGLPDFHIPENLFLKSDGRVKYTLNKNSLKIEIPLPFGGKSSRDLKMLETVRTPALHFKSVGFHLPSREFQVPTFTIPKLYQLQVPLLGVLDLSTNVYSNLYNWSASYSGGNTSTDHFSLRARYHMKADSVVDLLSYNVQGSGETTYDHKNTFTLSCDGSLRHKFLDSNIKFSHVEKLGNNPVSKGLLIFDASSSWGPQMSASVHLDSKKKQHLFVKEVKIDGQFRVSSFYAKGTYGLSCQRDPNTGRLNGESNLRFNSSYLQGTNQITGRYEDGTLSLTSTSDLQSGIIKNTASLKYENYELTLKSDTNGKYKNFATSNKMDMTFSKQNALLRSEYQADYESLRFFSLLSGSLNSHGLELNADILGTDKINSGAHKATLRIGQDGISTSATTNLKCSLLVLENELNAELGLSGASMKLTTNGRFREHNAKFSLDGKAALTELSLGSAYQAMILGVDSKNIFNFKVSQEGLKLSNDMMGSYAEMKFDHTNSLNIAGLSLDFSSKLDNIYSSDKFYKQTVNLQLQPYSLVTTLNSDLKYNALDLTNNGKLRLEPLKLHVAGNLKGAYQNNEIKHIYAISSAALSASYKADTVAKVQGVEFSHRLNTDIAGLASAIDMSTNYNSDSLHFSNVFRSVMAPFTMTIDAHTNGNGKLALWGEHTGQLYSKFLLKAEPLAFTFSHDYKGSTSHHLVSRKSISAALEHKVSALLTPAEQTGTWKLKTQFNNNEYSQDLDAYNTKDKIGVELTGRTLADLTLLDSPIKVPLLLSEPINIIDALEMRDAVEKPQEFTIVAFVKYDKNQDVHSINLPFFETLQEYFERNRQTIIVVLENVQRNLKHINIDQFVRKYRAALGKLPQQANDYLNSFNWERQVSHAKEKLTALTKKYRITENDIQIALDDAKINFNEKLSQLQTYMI

Take “Microsomal Triglyceride Transfer protein (from UniProt P55157)”: in test [1], the Kd is 20 nM.

For “LPS binding protein (LBP) (from UniProt P18428)”, the Kd with CD14 (Homo sapiens) was 5.52 nM.

B1: Saposin B, untagged, expressed in E. coli (unglycosylated) (natural protein, human, UniProt P07602 195-274, looked up)
chain: GDVCQDCIQMVTDIQTAVRTNSTFVQALVEHVKEECDRLGPGMADICKNYISQYSEIAIQMMMHMQPKEICALVGFCDEV
notes: Saposin B, the segment of human prosaposin (PSAP) residues 195-274, UniProt P07602; Cloned into pET-15b by NcoI and XhoI to give untagged protein; Co-purifies with E. coli lipid; also called SapB; ugSapB; source: E. coli Origami (DE3), purified (heat treatment, anion exchange, SEC)
Regarding B1, the Kd in test [2] was over 40000 nM.

Usually Kd stands for the free concentration of one partner at which half of the binding sites on the other are occupied at equilibrium, for simple one-to-one binding.
